The values that follow come from a protein production outcome set (Wang et al. 2014).

The nature of the data set: label from the status in PepcDB records.
In the case of “MFSGCVERSTRVLQDQEGDTVTSSPAGNKLPNINGLRDSNPRHSLGYRVQHRARTVVASVIVAMLVFAGTAAAATWLDVDNVIQHQKVDVIGQGSVSAEPTIIDPNSGKPIEILLLGQDSRDGEGNQAIGGDMTGNHQADTAMVLQISADRSAINLVSIPRDSLVDVPQCETSKGTIPAQYGVMFNSIFAGAYQTGGDLASAASCTLNAVNSLTGLNIQNFIVVDFAGLVKMIDAIGGVDICVPQDIDDPYSTLQLSKGMQHLDGTQATQYARTRYTLGDGSDTARTTRQQYLIKQLMSEALSKNLFTDTAQLYQLAKSALESLNISEGMADTAALVGLAMSLKNFNMSHLYTQTVPVVAAPSDPNRSVWADNADEVWAKMREGKSLFESTETNATSTDSTTTDGTTESQNTDENSGEQAQSTETPDATTGLITRADGTLIDPNTGGTVDPEDGSIHDATTGQYIGIADRYLNATVCAVPAKN”, the protein production entry is “failed”.

Regarding “EDFVDPWTVQTSSAKGIDYDKLIVRFGSSKIDKELINRIERATGQRPHHFLRRGIFFSHRDMNQVLDAYENKKPFYLYTGRGPSSEAMHVGHLIPFIFTKWLQDVFNVPLVIQMTDDEKYLWKDLTLDQAYSYAVENAKDIIACGFDINKTFIFSDLDYMGMSSGFYKNVVKIQKHVTFNQVKGIFGFTDSDCIGKISFPAIQAAPSFSNSFPQIFRDRTDIQCLIPCAIDQDPYFRMTRDVAPRIGYPKPALLHSTFFPALQGAQTKMSASDPNSSIFLTDTAKQIKTKVNKHAFSGGRDTIEEHRQFGGNCDVDVSFMYLTFFLEDDDKLEQIRKDYTSGAMLTGELKKALIEVLQPLIAEHQARRKEVTDEIVKEFMTPRKLSFDFQ”, the protein production entry is listed as “not failed”.

For “MSDSLHTPEEPRPGPGEQLAHAHDGSLRHTRAKGEPRFPDGPKADPAGSHFERRIRSFQPRRSRVTAGQADALQRLWPKWGLDIDGHALDLTELFGNTHPVVLEIGFGMGEATARMAAEDPDTGILAVDVHTPGQGNLLNLADQHGLTNIRVANGDAIILLREMLPPDSLDGLRVYFPDPWPKKRHHKRRLIQPEFLTLAATRLRPGALVHCATDWEPYAEQMLDVLTAHPDFENTQPTGGYAPRPGFRPLTRFEGQGLDKGHVVNDLLFRRVQPRDQHRDLPPSATEAD”, the protein production result is reported as “failed”.

Consider “MSASTSSHRPIKGILKNKSSSGSSVATSGQQSGGTIQDVKRKKSQKWDESSILAAHRATYRDYDLMKANEPGTSYMSVQDNGEDSVRDVEGEDSVRGVEGKEATDASDHSCEVDEQESSEAYMRKILLHKQEKKRQFEMRRRLHYNEELNIKLARQLMWKELQSEDNENEETPQGTNEEKTAAEESEEAPLTGGLQTQSCDP”, for which the protein production entry is reported as “failed”.

As for “MANISLKQGQFVTNSLPNKWKFRNLTKILLRRRFIVLGVSCMVISATSFTAITNKPTYKSQMQILVSPNVSEEVGITNNNIDIPISIEQYSVQKNLMQSSKLIDKVVNLLSFDYPNITKENILGKTENSENSPLKVTQLETNKGAKQVLSPVFEISFQDNDPLKTKKVLLALQKVYQDYNLERRQERFNQGLAFINARLPVIKQQLRQAERKLEQFRKKHNLLDPELQSQVLIKSLTKTQEQLQLTRTQLQDINSRYQNLEERITEASQKALVSMRLAQSSRYKTLTSELQKTEQSLAKEQLRYTDDSPIVQSLKQQRRSQLTLVRQELKRLTAELKTQTTPEPEQLVGVDPNLVEEFVQVQTTALGLIANEKSLRESEQRIRSELSKYPSLIAEYQRLLPEVETQRKTLEQMLQAQQSMGMKIAHGGFDWLVLEEANLGTYVGNDRFWLVFVGMITGPILGVVLALIWGMRHRIIHSAQDLQKVSNLRLLGTVPKLAPRTMEKRLPNLSWLGGRNLTESEEVGNSWLPCHETLDMVYQNTQILKYPFPFKSMMVTSALPGEGRTTLAMGLAASAAHMHRRVLLIDANLRSPKLHKILQLSNDWGLSLLLLDETNTEVQDYIQPIHPSIDILTAGPTPEDAVELLSSQRLKDLIELFEETYDLVLIDAPPILGTVDGRIVASYCHGIMMVGRIGWVTQTELTQAVEILNSLNLVGIIANDMSSYHKG”, the protein production entry is given as “failed”.

For the sequence “MNAIVEPRRAQPTDSDAILNALPNPVLLVGPDGKIVDANMAAESFFEISTQLLRRQSLTDLVPFGSPLLALIEQVRVGHSPVNEYKVDLGTPRIGADRQVDLHVAPLNERPGHIVVMLQERTIADKMDRQLTHRSAARSVIALAAMLAHEIKNPLSGIRGAAQLLEQQASAEDRMLTRLICDEADRIVTLVDRMEVFGDDRPVARGPVNIHSVLDHVKRLAQSGFARNIKFIEDYDPSLPPVLANQDQLIQVFLNLVKNAAEAVVDLGSDGEIQLTTAFRPGVRLSVPGKKTRVSLPLEFCVRDNGPGVPEDLLPNLFDPFVTTKPSGSGLGLALVAKIVGDHGGIIECESQPRKTTFRVLMPMFNTAKALQSPNGEDAPASSDASQTAR”, the protein production result was “failed”.

With “MNRNRLPALTPGLAWSRPMNGAVDHKGYEQPTYDLEFAETATEIRRYGPYLVAEVTMAGDRSTAITRGFRVLARYIFGGNAESRRIEMTVPVSQLPAGEDLWTVRFTMPAVRSASLLPAPKDSRIRFVTVPPSRQAVRRFSGWPTDHALRRQAEGLAHWIAERGLPKREGPYFYFYDSPMTLPWQRRNEVAFGLGEGLEHHHHHH”, the protein production entry was “not failed”.

As for “MYNPTAIAATNYQILPRRGKHKIFIGMAPGVGKTYRMLEEGHALKQDGVDVAIGLLEAHGREETTLKAEGLELIPRKQVYCRNVLLQEMDTEEILRRSPQLVLIDELAHTNIPGSKQEKRYQDVEKILNAGIDVYSTVNIQHLESLNDLVYRISGVVVRERIPDRIIDDADEIVVVDVTPETLQERLQEGKIYAPEKIDQALQNFFRRSNLIALRELALREIADNIEEESISETKNLHYNIRERVLVCISTYPNSIQLLRRGARIANHMNGQLFVLFVAPAGKFLSKSEALHIETCKRLCQEFTGEFLRIESPNIVTTIVKIATQERITQIVLGETRRSRFQLLFKGSIVQQLMRALPQVDIHIIANN”, the protein production entry is recorded as “failed”.

Take “MRPETLAVIQKQLTKIKAAQRNMTDNEVLRSMDEIMFCFENCYTEDETFTHIAQMFPSYVLKIVKSFFQISKAVTDEESREAYLTDAEECASVRRSQARDTSEEAKRSQDTLMGRLILIFMRPETREIIEMQLLPAMKLVKERLEREVEKQSMDEFMFCFENCYTEKETEMHVTRKFPSLKQSDVGIGFQTFIGLIDKESSREAYLKDAEDCANVRRIEARQGEASTSHKCEPNCNKH”: the protein production entry was “failed”.

As to “MYKGYKIGVAVPAYNEEKLIGETLKGIPPFVDRIYVVDDASKDNTSKVVEEMMRHDKRIVLIRHAKNKGVGGAIVSGWKKGLEEGMDILAVMAGDNQMDPRDLPALLDPIVEGKVDFTKGNRFLLSYDLKMSYWRRFGTFLLTILTKIASGYWHINDPQNGYVAIKADALRKIDLDKLDSGYFFENDLLIKASVANLRVVNVPVKIRYKIGEKSKIKYSKFIARTSWLLLRSFLWRIWVEYVKRRKFLGFLYLLGFTLIVTSFLIFLIYPTRLEIPLIVLLAGAAIFLGSCIKEKNLKQYLK”, the protein production entry is given as “failed”.

For “MAFDGCCPDCKLPGDDCPLIWGACNHAFHLHCILKWVNSQTSQAHCPMCRREWQFKE”, the protein production result was “failed”.

As to “MNRYQALFQRLSAAQQGAFVPFVTIGDPNPEQSLAIMQTLIDAGADALELGMPFSDPLADGPTIQGANLRALAAKTTPDICFELIAQIRARNPETPIGLLMYANLVYARGIDDFYQRCQKAGVDSVLIADVPTNESQPFVAAAEKFGIQPIFIAPPTASDETLRAVAQLGKGYTYLLSRAGVTGAETKANMPVHALLERLQQFDAPPALLGFGISEPAQVKQAIEAGAAGAISGSAVVKIIETHLDNPAKQLTELANFTQAMKKATKI”, the protein production result is given as “not failed”.

On to “MNNRPQLIYILPNLFTAASAFLGVISIIASIHGNYYTALIYIILSLICDGLDGRVARLTNSTSKFGVEFDSLADLVAFGVAPAVLFYMAIGYDFGKLGSLITAFFVVFGAIRLARFNVTTGTYEPSVFIGLPIPTAAVVSAIWTYAFISYDFLKPYGVVFLVLQAILGLLMVSNIRYPSFKKLDFNRSSVLKVLIILIIIFSFLYLYPLESLVILASLYVLYGIIRVLYTIIVSKFKIRNQE”, for which the protein production entry was “failed”.

Consider “MRNLLQKCFKWQWLVCLAVGCCFSSCKDDEESTSGYDPNKPIVLTDFYPPEGKLATQVILNGSNFGDSKENVKVFFNDKEASVISVKDDRMLVLAPKRASTIEDPECVVKVQVHEQIEEYKQTFDYYIQTTVTTLVGGSTSAQVNPTGTIPLSEAQFRANIDRCICVDQDKNVFFLVDNDGKFAAFMLNEEADKLISLKSDINALFNSPVLGYNSKDDIVYQFWANRDSHEVYYFDPKTDYAPTTAISSISWDDPNFPNIEGFGVWAAKCNFTMGPDGKMYSRMLGGNLVRIDVENARGENLTNGDLVGTKDGSAYGLVFDPQDENVFYFSNNDKHCIYKYDLRTKECACWAGQEGKSGYLDGPIGQAMFNKPGQMCVDSEGNIILTDTENHCIRKITMSTGYVSTLAGKPQNSGYVNGSAEDAQFKKPLGICIDNDDVMYIGDSENRAIRRLAVELEHHHHHH”, for which the protein production entry is given as “not failed”.

Turning to “MSVQTPDFSQQQQFLELTQQTIQNQQFDRLVLSQYKGTEPELEKVTFRMVELQQQFKLSALYHYTTKDVTKNYDLNDAIGVIETLIANCKQANLFGSVIEAQLKKNKKKAMLNVQQLSAEKYNNNVGQQHNREKQRYIDTMAPFLQYLGITEPNGNIIPAMARKWKQINKFIEIFSHAYEQIELKDDSIKIVDFGSGKGYLTFALYDYLQQQTRTAPQMTGVELRSNLVEFCEDVAKKAGFDHLDFFEGDVRTYAPEHLDVMIALHACDVATDFAIHTGIRLNASMIMCAPCCHKELRPQLQSPKVLKPMLQFGIHAGQQAEMLTDTLRALLLKAYGYDVKVFEFVSLEHTSKNKMILATKRQTIQQPDPQILEQIQALKQMYGIQKQTLELLLQDQITIDNVGCKC”, the protein production entry was “failed”.

In the case of “GPLGSMIVFVRFNSSHGFPVEVDSDTSIFQLKEVVAKRQGVPADQLRVIFAGKELRNDWTVQNCDLDQQSIVHIVQRPWRK”, the protein production entry is recorded as “not failed”.

Regarding “MSESIVTKIISIVQERQNMDDGAPVKTRDIADAAGLSIYQVRLYLEQLHDVGVLEKVNAGKGVPGLWRLLLEHHHHHH”, the protein production entry is reported as “not failed”.

Consider “YHDETAQDEEDRVLIHFNVRDIKIGPECHDVQPPEGRSRDGLLTVNLREGGRLHLCAETKDDALAWKTALLEANSTPVRVYSPYQDYYEVVPPNAHEATYVRSYYGPPYAGPGVTHVIVREDPCYSAGAPLAMGMLAGAATGAALGSLMWSPCWF”, for which the protein production result is on record as “failed”.

For “MPKERVDVLAYKQGLFETREQAKRGVMAGLVVNVINGERYDKPGEKIDDGTELKLKGEKLRYVSRGGLKLEKALAVFNLSVEDMITIDIGASTGGFTDVMLQNGAKLVYAVDVGTNQLVWKLRQDDRVRSMEQYNFRYAEPVDFTEGLPSFASIDVSFISLNLILPALAKILVDGGQVVALVKPQFEAGREQIGKNGIVRESSIHEKVLETVTAFAVDYGFSVKGLDFSPIQGGHGNIEFLAHLEKTDSPQNDVPTSIKEVVAQAHKEFKKNEEERSFGVNPKDCPRK”, the protein production result was “not failed”.
